Patent US20210388081A1 (Memorial Sloan Kettering, published 2021)

T1: FcRL1, overexpressed on 3T3 cells (UniProt Q96LA6 17-429, limits assumed)
T1 construct: whole, on cells
T1 sequence (looked up): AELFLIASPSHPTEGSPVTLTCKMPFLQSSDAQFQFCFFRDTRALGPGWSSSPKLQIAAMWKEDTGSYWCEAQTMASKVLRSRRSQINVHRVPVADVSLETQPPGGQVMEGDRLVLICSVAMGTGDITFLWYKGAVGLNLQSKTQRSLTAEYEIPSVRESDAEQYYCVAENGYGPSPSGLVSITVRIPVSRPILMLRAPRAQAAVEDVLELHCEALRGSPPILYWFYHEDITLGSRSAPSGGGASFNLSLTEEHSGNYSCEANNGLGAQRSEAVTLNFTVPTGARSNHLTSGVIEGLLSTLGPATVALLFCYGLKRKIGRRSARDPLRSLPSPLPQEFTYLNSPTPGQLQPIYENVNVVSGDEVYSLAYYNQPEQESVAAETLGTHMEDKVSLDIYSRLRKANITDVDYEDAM

T2: FcRL2, overexpressed on 3T3 cells (UniProt Q96LA5 20-508, limits assumed)
T2 construct: whole, on cells
T2 sequence (looked up): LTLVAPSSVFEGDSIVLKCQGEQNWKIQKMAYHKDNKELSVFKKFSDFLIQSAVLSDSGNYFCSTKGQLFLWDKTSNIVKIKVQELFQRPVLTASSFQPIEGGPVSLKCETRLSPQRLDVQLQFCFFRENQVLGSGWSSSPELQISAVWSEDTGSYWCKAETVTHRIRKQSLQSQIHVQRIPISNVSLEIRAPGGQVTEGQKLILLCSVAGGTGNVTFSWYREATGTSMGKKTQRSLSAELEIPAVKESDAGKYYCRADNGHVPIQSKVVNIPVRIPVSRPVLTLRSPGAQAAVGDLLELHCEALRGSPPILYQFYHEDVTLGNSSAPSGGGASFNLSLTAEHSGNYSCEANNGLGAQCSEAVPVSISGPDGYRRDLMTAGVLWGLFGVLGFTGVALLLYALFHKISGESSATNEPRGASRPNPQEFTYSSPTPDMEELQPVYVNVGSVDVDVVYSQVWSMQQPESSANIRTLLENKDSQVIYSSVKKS

T3: FcRL3, overexpressed on 3T3 cells (UniProt Q96P31 18-734, limits assumed)
T3 construct: whole, on cells
T3 sequence (looked up): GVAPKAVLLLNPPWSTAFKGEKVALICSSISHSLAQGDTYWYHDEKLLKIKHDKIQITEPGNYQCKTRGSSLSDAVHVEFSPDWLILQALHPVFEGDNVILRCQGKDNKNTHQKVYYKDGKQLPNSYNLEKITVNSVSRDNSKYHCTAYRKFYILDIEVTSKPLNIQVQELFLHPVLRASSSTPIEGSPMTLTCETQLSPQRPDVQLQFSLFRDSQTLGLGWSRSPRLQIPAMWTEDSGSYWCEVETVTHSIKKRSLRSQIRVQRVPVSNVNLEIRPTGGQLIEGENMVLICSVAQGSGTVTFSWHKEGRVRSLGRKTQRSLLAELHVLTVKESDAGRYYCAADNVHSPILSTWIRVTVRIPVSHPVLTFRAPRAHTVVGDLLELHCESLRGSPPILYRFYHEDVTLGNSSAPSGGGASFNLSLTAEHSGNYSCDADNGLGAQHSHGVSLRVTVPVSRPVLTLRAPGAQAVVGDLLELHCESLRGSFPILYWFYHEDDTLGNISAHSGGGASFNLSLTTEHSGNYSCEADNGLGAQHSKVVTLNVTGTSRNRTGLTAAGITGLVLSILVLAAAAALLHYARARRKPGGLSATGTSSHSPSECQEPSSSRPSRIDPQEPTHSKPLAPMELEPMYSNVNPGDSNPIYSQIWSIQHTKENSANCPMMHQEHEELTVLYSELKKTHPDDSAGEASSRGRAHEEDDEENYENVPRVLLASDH

T4: FcRL4, overexpressed on 3T3 cells (UniProt Q96PJ5 20-515, limits assumed)
T4 construct: whole, on cells
T4 sequence (looked up): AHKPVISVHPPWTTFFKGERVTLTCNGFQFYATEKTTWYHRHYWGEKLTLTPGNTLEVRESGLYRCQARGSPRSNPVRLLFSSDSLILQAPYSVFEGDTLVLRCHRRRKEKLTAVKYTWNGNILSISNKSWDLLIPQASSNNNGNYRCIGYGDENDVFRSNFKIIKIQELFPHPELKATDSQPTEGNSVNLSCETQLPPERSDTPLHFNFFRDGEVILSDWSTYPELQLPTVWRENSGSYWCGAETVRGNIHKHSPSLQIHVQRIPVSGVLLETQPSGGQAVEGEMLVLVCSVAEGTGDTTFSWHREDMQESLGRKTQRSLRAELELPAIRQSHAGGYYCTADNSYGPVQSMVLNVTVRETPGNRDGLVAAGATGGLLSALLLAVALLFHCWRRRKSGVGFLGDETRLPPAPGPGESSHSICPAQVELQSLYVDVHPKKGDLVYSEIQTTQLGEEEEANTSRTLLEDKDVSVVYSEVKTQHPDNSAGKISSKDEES

T5: FcRL6, overexpressed on 3T3 cells (UniProt Q6DN72 20-434, limits assumed)
T5 construct: whole, on cells
T5 sequence (looked up): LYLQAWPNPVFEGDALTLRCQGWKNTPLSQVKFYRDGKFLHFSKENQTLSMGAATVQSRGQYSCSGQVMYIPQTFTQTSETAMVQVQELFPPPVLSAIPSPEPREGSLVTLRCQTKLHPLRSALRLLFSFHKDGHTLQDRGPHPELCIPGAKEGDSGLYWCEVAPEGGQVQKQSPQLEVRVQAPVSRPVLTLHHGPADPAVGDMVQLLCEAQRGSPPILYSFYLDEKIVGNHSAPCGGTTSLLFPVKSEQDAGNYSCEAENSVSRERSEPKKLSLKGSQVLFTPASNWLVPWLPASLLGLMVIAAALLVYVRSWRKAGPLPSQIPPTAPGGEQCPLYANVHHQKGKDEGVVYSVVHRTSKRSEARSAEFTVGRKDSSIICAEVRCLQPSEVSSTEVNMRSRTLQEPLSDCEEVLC


Tests used:
[1] = target: anti-FcRL5/CD3 bispecific antibody generated using the ET200-104 scFv; test: ELISA, ET200-104 coated at 1 µg/ml on a Nunc Maxisorp plate; for some dilutions of the secondary Ab
[2] = target: anti-FcRL5/CD3 bispecific antibody generated using the ET200-117 scFv; test: ELISA, ET200-117 coated at 1 µg/ml on a Nunc Maxisorp plate; for some dilutions of the secondary Ab
SLAMF9 protein = SLAMF9 protein (UniProt Q96A28 19-236, limits assumed); test: phage clone on SLAMF9 protein
[3] = target: T1, FcRL1, overexpressed on 3T3 cells; test: phage clone on 3T3-FcRL1 cells
[4] = target: T2, FcRL2, overexpressed on 3T3 cells; test: phage clone on 3T3-FcRL2 cells
[5] = target: T3, FcRL3, overexpressed on 3T3 cells; test: phage clone on 3T3-FcRL3 cells
[6] = target: T4, FcRL4, overexpressed on 3T3 cells; test: phage clone on 3T3-FcRL4 cells
[7] = target: T5, FcRL6, overexpressed on 3T3 cells; test: phage clone on 3T3-FcRL6 cells

Chain of SLAMF9 protein (Q96A28 19-236 limits assumed): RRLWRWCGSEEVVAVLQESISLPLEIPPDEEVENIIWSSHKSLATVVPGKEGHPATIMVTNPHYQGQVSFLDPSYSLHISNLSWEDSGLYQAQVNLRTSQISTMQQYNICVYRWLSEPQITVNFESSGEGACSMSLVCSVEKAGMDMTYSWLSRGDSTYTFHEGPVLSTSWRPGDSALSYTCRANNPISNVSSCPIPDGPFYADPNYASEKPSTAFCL
Chain of anti-FcRL5/CD3 bispecific antibody generated using the ET200-117 scFv (scFv, as listed by the source limits assumed, form in doubt): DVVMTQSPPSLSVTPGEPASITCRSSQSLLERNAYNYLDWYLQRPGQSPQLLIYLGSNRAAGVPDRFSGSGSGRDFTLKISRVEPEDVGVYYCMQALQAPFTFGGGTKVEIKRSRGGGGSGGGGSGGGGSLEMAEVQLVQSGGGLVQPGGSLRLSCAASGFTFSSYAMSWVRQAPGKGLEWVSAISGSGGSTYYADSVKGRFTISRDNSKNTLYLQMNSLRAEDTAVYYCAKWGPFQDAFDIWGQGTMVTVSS

Molecule	OD [1]	OD [2]	binding result (SLAMF9 protein)	binding result [3]	binding result [4]	binding result [5]	binding result [6]	binding result [7]
Goat Anti-Human Ig-HRP (Southern Biotech; #2010/05) (antibody)	> 1 OD	> 1 OD						
ET200-024 (scFv, screened as phage clone; entry is VL-linker-VH-His tag-HA tag) scFv: NFMLTQPHSVSESPGKTVTISCTGSSGSIASNYVQWYQQRPGSAPTTVIYEDNQRPSGVPDRFSGSIDSSSNSASLTISGLKTEDEADYYCQSYDSSNLWVFGGGTKLTVLGSRGGGGSGGGGSGGGGSLEMAQMQLVQSGAEVKKPGSSVKVSCKASGGTFSSYAISWVRQAPGQGLEWMGGIIPIFGTANYAQKFQGRVTITADESTSTAYMELSSLRSEDTAVYYCARYNYYYYDSWGQGTLVTVSSTSGQAGQHHHHHHGAYPYDVPDYAS			no binding	no binding	no binding	no binding	no binding	no binding
ET200-037 (scFv, screened as phage clone; entry is VL-linker-VH-His tag-HA tag) scFv: SYVLTQPPSVSVAPGKTARITCGGNNIGSKSVHWYQQKPGQAPVLVIYYDSDRPSGIPERFSGSNSGNTATLTISRVEAGDEADYYCQVWDSSSDHPYVFGTGTKVTVLGSRGGGGSGGGGSGGGGSLEMAQMQLVQSGAEVKKPGASVKVSCKASGYTFTSYGISWVRQAPGQGLEWMGWISAYNGNTNYAQKLQGRVTMTTDTSTSTAYMELRSLRSDDTAVYYCARSMFGAHDSWGQGTLVTVSSTSGQAGQHHHHHHGAYPYDVPDYAS			no binding	no binding	no binding	no binding	no binding	no binding
